15 molecules from US20110044996A1 (published 2011) can be followed below.

Residue numbers refer to the chain shown, from its start.

Assay [1] deals with T1, recombinant human GM-CSF (Peprotech) (human, UniProt P04141 18-144). Nature of the assay: SPR (BIAcore); recombinant human GM-CSF coated on CM5 chip, antibody injected at 66.7-4.17 nM. The procedure:
The binding kinetics of the 4K21 monoclonal antibody was determined using a Biacore and compared with the binding kinetics for a commercially available rat anti-human GM-CSF antibody from BD Biosciences (BD; Cat No. 554501) (see Table 1 below). Recombinant human GM-CSF was coated onto a CM5 chip to determine the binding kinetics of the 4K21 antibody. An uncoated flow cell was used as a reference. The antibody, prepared in HBS-EP at concentrations of 66.7 nM to 4.17 nM with 2-fold serial dilution, was injected for 2 minutes with a stabilisation time of 10 minutes and dissociation time of 15 minutes. The BIACore kinetic analysis wizard was run to determine each antibody's association (ka [1/Ms]), dissociation (kd[1/s]) and affinity (KD [nM]) to GM-CSF.
(In general: In SPR one partner is held on a chip, and binding of the other changes the refractive index at the surface.)

The target in assay [2] is T1, recombinant human GM-CSF (Peprotech). Nature of the assay: SPR (BIAcore); recombinant human GM-CSF coupled to CM5 chip, antibody injected at 66.7-4.17 nM. On the procedure:
A second experiment was performed to determine the kinetics with which these antibodies bind to human GM-CSF. A range of antibody concentration was prepared in HBS-EP from 66.7 nM to 4.17 nM with 2-fold serial dilution. Again direct binding was quantitated using recombinant GM-CSF coupled to a CM5 chip—an uncoated flow cell was used as a reference. The antibody at each concentration was injected for 2 minutes with a stabilisation time of 10 minutes and dissociation time of 15 minutes. The BIACore kinetic analysis wizard was run to determine each antibody's association (ka [1/Ms]), dissociation (kd[1/s]) and affinity (KD [nM]) to GM-CSF.

Assay [3] shares this target. Nature of the assay: cell-based or functional assay.
The target is the same in assay [4]. Nature of the assay: BIAcore, recombinant human GM-CSF amine-coupled to a CM5 chip, antibody at 1 ug/ml injected for 3 min. On the procedure: The binding affinity of the humanized antibodies was determined by BIACore analysis. Recombinant GM-CSF (Peprotech) at 100 μg/ml was prepared in sodium acetate, pH5, and immobilised to a CM5 sensor chip by amine coupling. Approximately 1200RU bound to the chip. The first experiment was to determine the binding activity of 15 humanized antibodies. These antibodies were prepared in HBS-EP at 1 μg/ml, injected for 3 minutes and compared to murine 4K21 and a commercially available anti GM-CSF antibody (BD).

T1 sequence (P04141 18-144 limits assumed): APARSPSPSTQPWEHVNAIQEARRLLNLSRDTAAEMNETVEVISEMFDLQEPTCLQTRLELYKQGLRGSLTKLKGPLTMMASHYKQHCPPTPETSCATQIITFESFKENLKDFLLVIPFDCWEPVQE

As a reminder, the Kd is the free concentration of one partner at which half of the binding sites on the other are occupied at equilibrium, for simple one-to-one binding. One may read the koff as the first-order rate constant of dissociation. As a reminder, the kon is a measure of how fast the partners come together. Turning to “commercially available rat anti-human GM-CSF antibody from BD Biosciences (Cat No. 554501)”, in assay [1], the Ka is > 5.2e+09 M⁻¹, the Kd was < 0.19 nM, the koff was < 1e-05 s⁻¹ and the kon is 52000 M⁻¹ s⁻¹. In assay [2], the Ka was > 5.2e+09 M⁻¹, the dissociation constant Kd is < 0.19 nM, the koff was < 1e-05 s⁻¹ and the on-rate constant (kon) worked out at 52000 M⁻¹ s⁻¹.

B1: murine monoclonal antibody 4K21-O11-E14 (antibody, V domains shown)
VH: EVQLVESGGGLVKSGGSLKLSCAASGFAFSAYDMSWVRQTPEKRLELVAYISSGGSSFYYPDTVKGRFTISRDNAKNTLYLQMSSLKSEDTAMYYCTRHLGFDYWGQGTTLTVSS
VL: DVVMTQTPLSLPVSLGDQASISCRSSQSLVNSNGNTYLHWFLQKPGQSPKLLIYKVSNRFSGVPDRFSGSGSGTDFTLKISRVEAEDLGVYFCSQSTHVPPTFGGGTKLEIK
notes: Murine hybridoma antibody (ECACC 07051601); also called 4K21-O11-E14 (mouse); mAb 4K21
Consider B1, for which, in assay [1], the Ka was > 5.9e+09 M⁻¹, the Kd is < 0.17 nM, the koff was < 1e-05 s⁻¹ and the kon was 59000 M⁻¹ s⁻¹. The “EC50, TF-1 cell growth (3H-thymidine) with GM-CSF” value (“EC50, TF-1 cell growth” below) in assay [3] is 0.311 nM. Besides, in assay [2], the Ka was > 5.9e+09 M⁻¹, the Kd is < 0.17 nM, the koff is < 1e-05 s⁻¹ and the kon was 59000 M⁻¹ s⁻¹.

B2: hGM4/15 (antibody, V domains shown)
VH: EVQLVESGGGLVKSGGSLTLSCAASGFAFSAYDMSWIRQAPGKGLEWVSYISSGGSSFYYPDTVKGRFTISRDNAKNSLYLQMNSLKDEDTAVYYCARHLGFDYWGQGTLVTVSS
VL: B1 VL with T7S, S14T, L15P, D17E, Q18P, F41Y, K50Q, L88V, F92Y, L109V
notes: Heavy h4/50 with human gamma 1 constant (hG1), light h4c with human kappa constant (hKa); also called h4K21-15
On to B2, for which the binding result in assay [4] is reported as “binds”.

B3: hGM4/14 (antibody, V domains shown)
VH: EVQLVESGGGLVQPGGFLRLSCAASGFAFSAYDMSWVRQAPGKGLVWVSYISSGGSSFYYPDTVKGRFTISRDNAKNTLYLQMNSLRAEDTAMYYCTFHLGFDYWGQGTTVTVSS
VL: B1 VL with T7S, S14T, L15P, D17E, Q18P, F41Y, K50Q, L88V, F92Y, L109V
notes: also called h4K21-14; humanised 4K21-14
With B3, the binding result in assay [4] is given as “no binding (tested: 1 ug/ml)”.

B4: hGM4/11 (antibody, V domains shown)
VH: B1 VH with E1Q, V5Q, S14P, E42D, L47W, T97A, T110M, L111V
VL: B1 VL with T7S, S14T, L15P, D17E, Q18P, F41Y, K50Q, L88V, F92Y, L109V
Regarding B4, in assay [3], the “EC50, TF-1 cell growth” value amounted to 5.13 nM.

B5: hGM4/1 (antibody, V domains shown)
VH: B1 VH with E1Q, V5Q, S14P, E42D, L47W, T97A, T110M, L111V
VL: DVVMTQSPLSLPVTLGQPASISCRSSQSLVNSNGNTYLHWFQQRPGQSPRRLIYKVSNRFSGVPDRFSGSGSGTDFTLKISRVEAEDVGVYYCSQSTHVPPTFGGGTKVEIK
notes: Heavy h4/10 with human gamma 1 constant (hG1), light h4a with human kappa constant (hKa); also called h4K21-1; 4K21-1
Take B5: in assay [2], the Ka was determined as 7.7e+09 M⁻¹, the Kd came out at 0.13 nM, the koff was 3.8e-05 s⁻¹ and the kon worked out at 290000 M⁻¹ s⁻¹.

B6: hGM4/34 (antibody, V domains shown)
VH: B1 VH with E1Q, V5Q, S14P, E42D, T110M, L111V
VL: B5 VL with L15P, Q17E, F41Y, Q42L, R44K, R50Q, R51L
For the molecule B6, the “EC50, TF-1 cell growth” value in assay [3] turned out to be 0.22 nM.

B7: hGM4/6 (antibody, V domains shown)
VH: B1 VH with E1Q, V5Q, S14P, E42D, L47W, T97A, T110M, L111V
VL: B5 VL with G105Q, V109L
notes: Heavy h4/10 with human gamma 1 constant (hG1), light h4b with human kappa constant (hKa); also called h4K21-6
B7: in assay [2], the Ka is 1.2e+10 M⁻¹, the Kd stood at 0.081 nM, the koff was determined as 1.6e-05 s⁻¹ and the kon worked out at 200000 M⁻¹ s⁻¹.

B8: hGM4/21 (antibody, V domains shown)
VH: B1 VH with E1Q, V5Q, S14P, E42D, T97A, T110M, L111V
VL: B5 VL with L15P, Q17E, F41Y, Q42L, R44K, R50Q, R51L
On to B8, for which the “EC50, TF-1 cell growth” value in assay [3] worked out at 1.19 nM.

B9: hGM4/22 (antibody, V domains shown)
VH: B1 VH with E1Q, V5Q, S14P, E42D, L47W, T110M, L111V
VL: B5 VL with L15P, Q17E, F41Y, Q42L, R44K, R50Q, R51L
In the case of B9, in assay [3], the “EC50, TF-1 cell growth” value turned out to be 2.12 nM.

B10: hGM4/2 (antibody, V domains shown)
VH: B2 VH with K13Q, S14P, T19R, I37V, K87R, D88A
VL: B5 VL
notes: Heavy h4/20 with human gamma 1 constant (hG1), light h4a with human kappa constant (hKa); also called h4K21-2
With B10, in assay [2], the Ka amounted to 3.5e+09 M⁻¹, the Kd came to 0.29 nM, the koff was 4.7e-05 s⁻¹ and the kon came to 160000 M⁻¹ s⁻¹.

B11: hGM4/5 (antibody, V domains shown)
VH: B2 VH
VL: B5 VL
notes: Heavy h4/50 with human gamma 1 constant (hG1), light h4a with human kappa constant (hKa); also called h4K21-5
For the molecule B11, in assay [2], the Ka turned out to be 7.6e+09 M⁻¹, the Kd was determined as 0.13 nM, the koff was found to be 1.9e-05 s⁻¹ and the kon came out at 140000 M⁻¹ s⁻¹.

B12: hGM4/12 (antibody, V domains shown)
VH: B2 VH with K13Q, S14P, T19R, I37V, K87R, D88A
VL: B5 VL with L15P, Q17E, F41Y, Q42L, R44K, R50Q, R51L
notes: Heavy h4/20 with human gamma 1 constant (hG1), light h4c with human kappa constant (hKa); also called h4K21-12
Turning to B12, in assay [4], the binding result was “binds”.

B13: hGM4/3 (antibody, V domains shown)
VH: B3 VH with F17S, A23S, V46E, S49A, T78S, Y80F, N84S, M93V, T97A, F98R
VL: B5 VL
notes: Heavy h4/30 with human gamma 1 constant (hG1), light h4a with human kappa constant (hKa); also called h4K21-3; 4K21-3
For the molecule B13, in assay [2], the Ka was 7.1e+09 M⁻¹, the Kd amounted to 0.14 nM, the off-rate (koff) worked out at 3e-05 s⁻¹ and the kon turned out to be 210000 M⁻¹ s⁻¹.

B14: hGM4/13 (antibody, V domains shown)
VH: B3 VH with F17S, A23S, V46E, S49A, T78S, Y80F, N84S, M93V, T97A, F98R
VL: B5 VL with L15P, Q17E, F41Y, Q42L, R44K, R50Q, R51L
notes: Heavy h4/30 with human gamma 1 constant (hG1), light h4c with human kappa constant (hKa); also called h4K21-13
Consider B14, for which the binding result in assay [4] is “binds”.
